As a reminder, the Kd is a measure of binding affinity in units of concentration. High values mean a looser complex, low ones a tighter complex.

Experimental findings from PMC2965237 are described below.

Holding throughout (experiment): EMSA
The target of data set [1] is RdgC R118C (Escherichia coli, UniProt P36767 1-303, R118C).
The target of data set [2] is RdgC R118A (Escherichia coli, UniProt P36767 1-303, R118A).
For data set [3], the target named is RdgC H222A (Escherichia coli, UniProt P36767 1-303, H222A).
Data set [4] concerns the target RdgC E218R (Escherichia coli, UniProt P36767 1-303, E218R).
The target of data set [5] is RdgC Δfinger R118C (Escherichia coli, UniProt P36767 1-303, P76G;L116T;R118C;del77-115).
In data set [6] the target is RdgC F120T K227A (Escherichia coli, UniProt P36767 1-303, F120T;K227A).

B1: RGL13/17 (dsDNA)
DNA 1: GACGCTGCCGAATTCTGGCTTGCTAGGACATCTTTGCCCACGTTGACCC
DNA 2: GGGTCAACGTGGGCAAAGATGTCCTAGCAAGCCAGAATTCGGCAGCGTC
In the case of B1, the equilibrium dissociation constant (Kd) in data set [1] is 6 nM; in data set [2], 6 nM; in data set [3], 12 nM; in data set [4], 22 nM.
In the case of GACGCTGCCGAATTCTGGCTTGCTAGGACATCTTTGCCCACGTTGACCC (ssDNA) [RGL13], the Kd is 6 nM in data set [1], 6 nM in data set [2], 5 nM in data set [3] and ~6000 nM in data set [5]. Moreover, in data set [6], the binding result is on record as “no binding”.
